The supplement of paper PMC7877785
± gives the uncertainty stated by the source.

Assay: self-splicing fitness, log relative to wild type (ln ratio); higher = more splicing; Tetrahymena group I intron in knt gene, E. coli kanamycin selection, DiMSum; sequences stand for … in CUCUCU…GGAGGGAAAAGUUAUCAGGCAUGCACCUGGUAGCUAGUCUUUAAACCAAUAGAUUGCAUCGGUUUAAAAGGCAAGACCGUCAAAUUGCGGGAAAGGGGUCAACAGCCGUUCAGUACCAAGUCUCAGGGGAAACUUUGAGAUGGCCUUGCAAAGGGUAUGGUAAUAAGCUGACGGACAUGGUCCUAACCACGCAGCCAAGUCCUAAGUCAACAGAUCUUCUGUUGAUAUGGAUGCAGUUCACAGACUAAAUGUCGGUCGGGGAAGAUGUAUUCUUCUCAUAAGAUAUAGUCGGACCUCUCCUUAAUGGGAGCUAGCGGAUGAAGUGAUGCAACACUGGAGCCGCUGGGAACUAAUUUGUAUGCGAAAGUAUAUUGAUUAGUUUUGGAGUACUCGUGGUCG
Outline: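 Pooled colonies went to amplicon sequencing on an Illumina HiSeq 2500 after six replicate transformations. The plates were LB agar with 100 μg/mL carbenicillin, 50 μM IPTG and 0.2% rhamnose, with or without 25 μg/mL kanamycin, incubated overnight at 37°C or 30°C. The E. coli BL21(DE3) library had all eight P1ex-region intron nucleotides randomised, the intron placed in the knt kanamycin-resistance gene on pET-22b(+). DiMSum fitness is the error-weighted combination of replicate fold changes, kanamycin against none, normalised to wild type.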

Sequence | self-splicing fitness (ln) (30 °C) | self-splicing fitness (ln) (37 °C)
CUUAAGCAAUAUUACGCUAU | -1.59 ± 0.32 | -1.8 ± 0.33
AACGAGCAAUAUUACGAGUC | – | -2.63 ± 0.44
CACGAGCAAUAUUACGAGCC | -3.12 ± 0.31 | -3.55 ± 0.47
UUCAAGCAAUAUUACGUAAC | – | -2.22 ± 0.42
UAUCAGCAAUAUUACGCCAC | -3.63 ± 0.48 | –
AACUAGCAAUAUUACGUGGA | -2.28 ± 0.11 | -1.61 ± 0.1
UAUAAGCAAUAUUACGGUAU | -3.16 ± 0.16 | -2.25 ± 0.17
CCAGAGCAAUAUUACGUUUG | -2.32 ± 0.11 | -2.25 ± 0.17
UCCAAGCAAUAUUACGCAGA | -1.58 ± 0.12 | -0.571 ± 0.088
CUUAAGCAAUAUUACGAUAC | -2.53 ± 0.36 | -2.33 ± 0.5
UGCGAGCAAUAUUACGACGC | -3.46 ± 0.25 | –
UUGAAGCAAUAUUACGUGUC | -2.93 ± 0.21 | -2.47 ± 0.24
AACCAGCAAUAUUACGGAUG | -0.77 ± 0.058 | -0.508 ± 0.072
GCUCAGCAAUAUUACGUGGU | -1.88 ± 0.13 | -1.31 ± 0.17
ACGGAGCAAUAUUACGGUCC | -3.38 ± 0.36 | -1.39 ± 0.34
UGGCAGCAAUAUUACGCUGC | -2.98 ± 0.25 | –
GGUGAGCAAUAUUACGUUUU | -2.94 ± 0.26 | -1.6 ± 0.23
GAGUAGCAAUAUUACGCGGC | – | -1.74 ± 0.45
ACAUAGCAAUAUUACGGACG | -1.32 ± 0.1 | -0.653 ± 0.14
CGUGAGCAAUAUUACGAGUA | – | -0.918 ± 0.47
ACAUAGCAAUAUUACGGCCA | -0.771 ± 0.12 | -0.572 ± 0.13
AAGUAGCAAUAUUACGUACG | -1.29 ± 0.088 | -0.0022 ± 0.11
GAUUAGCAAUAUUACGUGUU | -2.85 ± 0.22 | -1.66 ± 0.14
GACGAGCAAUAUUACGAACU | -1.83 ± 0.11 | -0.278 ± 0.11
CGGGAGCAAUAUUACGCGAC | -3.85 ± 0.29 | -1.59 ± 0.36

Sequence | self-splicing fitness (ln) (30 °C) | self-splicing fitness (ln) (37 °C)
AUCAAGCAAUAUUACGGAUC | -3.29 ± 0.25 | -1.91 ± 0.21
AAUCAGCAAUAUUACGUGCG | -0.392 ± 0.058 | -0.216 ± 0.08
GCCCAGCAAUAUUACGGCAC | -1.45 ± 0.067 | -0.0437 ± 0.094
CUCAAGCAAUAUUACGUACC | -4.45 ± 0.34 | -2.04 ± 0.23
CUGGAGCAAUAUUACGAUGG | -3.66 ± 0.26 | -1.47 ± 0.22
CAGCAGCAAUAUUACGGCGG | -1.93 ± 0.093 | -1.5 ± 0.16
CUAGAGCAAUAUUACGAAUC | -3.87 ± 0.36 | -2.07 ± 0.21
UCGUAGCAAUAUUACGCGCU | -2.31 ± 0.19 | -1.78 ± 0.22
CUGGAGCAAUAUUACGGAGA | -3.11 ± 0.42 | –
CUGCAGCAAUAUUACGGUCU | -3.44 ± 0.17 | -2.07 ± 0.2
CUGAAGCAAUAUUACGGGCA | -3.04 ± 0.22 | -1.25 ± 0.2
AGUUAGCAAUAUUACGAUGU | -1.48 ± 0.096 | -0.307 ± 0.11
GAGAAGCAAUAUUACGACCU | 0.392 ± 0.1 | -0.128 ± 0.096
GGACAGCAAUAUUACGGUGG | -1.71 ± 0.11 | -1.53 ± 0.14
UAUAAGCAAUAUUACGAAUG | -1.24 ± 0.087 | -0.222 ± 0.11
CCCGAGCAAUAUUACGCCAU | -3.53 ± 0.35 | -2.44 ± 0.33
CAGAAGCAAUAUUACGAAAU | -3.92 ± 0.42 | -1.33 ± 0.38
CUCGAGCAAUAUUACGUUUU | -3.2 ± 0.13 | -2.1 ± 0.17
GAACAGCAAUAUUACGUCGC | -1.61 ± 0.11 | -0.68 ± 0.12
UUGAAGCAAUAUUACGUUAU | -2.08 ± 0.099 | -0.402 ± 0.1
GAAAAGCAAUAUUACGUGUU | -2.35 ± 0.083 | -1.18 ± 0.088
GACUAGCAAUAUUACGUCUG | -3.86 ± 0.25 | -1.57 ± 0.23
AUUAAGCAAUAUUACGUGAU | -1.74 ± 0.089 | -1.34 ± 0.12
GGCCAGCAAUAUUACGCCUG | -2.83 ± 0.27 | -1.68 ± 0.23
AGACAGCAAUAUUACGUGUG | -2 ± 0.063 | -1.44 ± 0.072
